This data set can be described thus: yeast display, Sf9 membrane polyspecificity reagent, FACS + sequencing; frameworks hold sequencing errors. The method, boiled down: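 Sorting gates, low and high (top ~1%), were placed on anti-HA fluorescence to track expression and on streptavidin fluorescence to track reagent binding. A clone's polyreactivity label is taken from the gate it came out of. The reagent was 10% biotinylated, detergent-solubilized Sf9 membrane, applied for 1 hour at 4 °C to galactose-induced yeast display cells.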
With “QVQLVESWGGLVQAGGSLRLSCAASGRTFDGNAMGWYRQAPGKEGEFVATISTDGGSTHYADSVKGRFTISRDNAKNTVYLQMNSLKPEDTAVYYCAADTPWYDDNYDYWGQGTQVTVSS”, the “polyreactivity (PSR sort gate)” value is “low polyreactivity”. For “QVQLVESWGGLVQAGGSLRLSCAASGRTFYSNAMGWYRQARGNERELVAAISRSGGTTYYADSVKGRFTISRDNAKNTVYLLMNSLKPEDTAVYYCNTLRYGTTGKYDYWGQGTQVTVSS”, the “polyreactivity (PSR sort gate)” value is recorded as “high polyreactivity”. As for “QVQLVESWGGLVQAGGSLRLSCAASGRTFYYYTMGWYRQAPGKEREFVAAISWSGGGTYYADSVKGRFTISRDNAKNTDYLQMNILKPEDTAVYYCATGPRIRYDYWGQGTQVNVSS”, the entry is “high polyreactivity”.

With “QVQLVESWGGLVQAGGSLRLSCAASGSIFDYNAMGWYRQAPGKERELVAAISSGGSTNYADSVKGRFTISRDNAKNTVYLQMNSLKPEDTAVYYCNTGLYWLGYWPDDYWGQGTQVTVSS”, the “polyreactivity (PSR sort gate)” value is “low polyreactivity”.

“QVQLVESWGGLVQAGGSLRLSCAASGSILYYYVMGWYRQAPGKERELVAAINSGGNTNYADSVKGRFTISRDNAKNTVYLQMNSLKTVDTAVYYCATASGDGVRTDFGNEYDYWGQGTQVNVSS”: the “polyreactivity (PSR sort gate)” value was “low polyreactivity”. Take “QVQLVESWGGLVQAGGSLRLSCAASGSNFYTYAMGWYRQAPGKERDFVAAITWSGGRTYYADSVKGRFTISRDNAKNSVYLQMNSLKPEDTAVYYCAATSWWATTGFDYWGQGTQVTVSS”: the “polyreactivity (PSR sort gate)” value is reported as “low polyreactivity”. Consider “QVQLVESWGGLVQAGGSLRLSCAASGSTFVAYAMGGYRQAPGKEREFVAGISVRGGSTYYADSVKGRFTISRDNAKNTVYLQMNSLKPEDTAVYYCAARRVDTRVHVRYRYYYWGQGTQVTVSS”, for which the “polyreactivity (PSR sort gate)” value is “high polyreactivity”. Then “QVQLVESWGGLVQAGGSLRLSCAASGSTISANALGWDRQAPGTEREWVASISRRGGSPYYADSVKGRFTISRDKATNTVYLQMNSLKPEDTAVYYSGAVFRYYARTFDYWGQGTQVSVSS”, with “high polyreactivity”; and “QVQLVESWGGLVQAGGSLRLSCDASGSTFIPKDMGWYRQAPGKERELVAAITVSGDDTYYADSVKGRFTISRDNAKNTVYIQMNILKPEVTAVYYCAAEWGLYVGQYEYCGQGTQVTVSS”, with “low polyreactivity”. For the sequence “QVQLVESWGGLVQAGGSLRLSCDASGSTLYHNVMGWYRQAPGKERDLVASIDTGDSTNYADSVKGRFSISRDNAKNTVYLQMNSLKPEDTAVSYCNADSYTALNNRGYDYWGLGTQVTVSS”, the “polyreactivity (PSR sort gate)” value is listed as “low polyreactivity”. For “QVQLVESWGGLVQAGGSLRLSSPASGFTFFYYAMGWYRPAPGKERELVAAITSGGSTKNADSVKGRFTISRDNAKNSVYLQMNSLKPEDTAVYYCAARVRISGSPRILYNYWGQGTQVTVSS”, the “polyreactivity (PSR sort gate)” value was “high polyreactivity”. As for “QVQLVESWGGLVQAGGTLSLSCADSGLIFYFYDRGWYRQAPGKESEFVATISSTGGSTYYADSVKGRFTISRDNAKNTVYLQMNSVKPEDTAVYVCADRGWFPGFRYDYWGQGTQVTVSS”, the “polyreactivity (PSR sort gate)” value is on record as “low polyreactivity”. With “QVQLVESWGGLVQAGRSHRLSCAASGIIFDGNALGWYRQAPRKEREMVAAISSSGARTYYADSVKGRFTISRDNAKNSVYLLMNSLKPEDTAVYYCNAAYFNWYTHVWNDYWGQGTQVTVSS”, the “polyreactivity (PSR sort gate)” value is “high polyreactivity”. Consider “QVQLVESWGGLVQSGGSLRLICAASGSTNQYNAMGWYRQAPGKERELVAAISLSGATTYYADSVKGRCTISRDPAKNTVYLQMNIQKPEDTSVYYCAADFGWFYDCVAVWFIRILGDYWGQGTQVTVSS”, for which the “polyreactivity (PSR sort gate)” value is recorded as “low polyreactivity”. Turning to “QVQLVESWGVLVQAGGSLRLSCAASGSIFTYYTMGWYRPEPGKERDFVARISSGGSTNYADSVKGRFTISRDNAMNTVYLQMNSLKPEDTAVYYCAAVSSYSPYRLTYYYWGQGTQVTVSS”, the “polyreactivity (PSR sort gate)” value is “high polyreactivity”. With “QVQLVESWGVLVQAGGSLRLSCAAYGSIFRLYAMGSYRTAPGTARELVAAITSGDSTNYADSVKGRFTISRDNAKNTVYLQMNSLKPEDTAVYYCNSGRISVRVTSEQYAYHEYYYWGQGTQVTVSS”, the “polyreactivity (PSR sort gate)” value was “high polyreactivity”. Take “QVQLVESWRGLDQAGGSLRLICSASGGIFKGYSMGWFRQAPGKERELVAVISSRVGSTYYADSLKGRFTISRDNEKNTVYLQMNSQKPEHTAVYYCAKRRYAAVNYNYWGQGTQVTVSS”: the “polyreactivity (PSR sort gate)” value is listed as “high polyreactivity”. Then “QVQLVETAGGLVKAGCSLRLSCAASGRIFYIYAMAWYRQSPGKESELLAAISTGGGGTYYADSVKGRFTISRDNAKNTVYLQMNSLKPEDTAVYYCAATSPLSLDEDYWGQGTQVTVSS”, with “high polyreactivity”; and “QVQLVETGAGIVQAGGILRLSCAASGSIFQGNAIGWYRQAPGKERELVAAISGGTSTYYADSEKGRFTISRDNAKNTVYLEMNSLKPEDTAVYYCAARFYGHPYWYDYWGLGTQVTVSS”, with “low polyreactivity”; and “QVQLVETGAGLVQAGGSLRLSSAASGRTLYPYAMGWSRQSPGNERELVAAISSRGGSTYYADSVKGRFTISRDIAKNTVYLQMNSLKPEDTAVYYCAKTYRKILSITGDVPWTDYYWGQGTQVTVSS”, with “low polyreactivity”. On to “QVQLVETGGCLVQAGGSLRLSCAASGFIFYIYAMGWYRQAPGKERELVAAITSGGSTYYADSVKGRFTITRDNAKNTVYLQMNSLKPDDTAVYYCASESYYGYDYWGQGTQVTVSS”, for which the “polyreactivity (PSR sort gate)” value was “low polyreactivity”. With “QVQLVETGGGIVQAGGRLRLSCAASGFTFYANTMGWYRQAPGKERELVATIRSTGSTKYADSVKGRFTISRDNAMNTVYLQMNSLNPEDTAVYYCAKRDRYYGVAVEGIRYDYWGQGTQVTVSS”, the “polyreactivity (PSR sort gate)” value is reported as “high polyreactivity”. With “QVQLVETGGGIVQAGGSLRLSCAASGFTFFRNAMGWYRQAPGKERELVAAISGSGGSTYYADSVKGRFTISRDNAKNKVYLQMNSLKPEDTAVYYCNAQKQIREPGNERLNYWGQGTQVTVSS”, the “polyreactivity (PSR sort gate)” value is given as “low polyreactivity”. With “QVQLVETGGGIVQAGGSLRLSCAASGSTFDGYVMGWYRQEPGKERELVAAISGSGGSTYYADSVKGRFTISRDNAKNTVYFELYSLKPEDTSVYYCAADSWWYDDYSEGDYWGQGTQVTVSS”, the “polyreactivity (PSR sort gate)” value is listed as “low polyreactivity”. Turning to “QVQLVETGGGIVQAGGSLSLSCAASGRIFSPYAMGWYRQAPGKERELVAAISYDDGITYYADSVKGRFTISRDNAKNTVYLQMISLKPEDTAVYYCAADSVTRPAGDYWGQGTQVTVSS”, the “polyreactivity (PSR sort gate)” value is “low polyreactivity”. Then “QVQLVETGGGIVQARGRLRLSCAASVITFTGYAMGWYRPAPGKERELVAAITSGGGRTYYADSVKGRFTISRDNAKNTVYLLMNSLKPEDTAVYYCNARGQSRYGYWGQGTQVTVSS”, with “high polyreactivity”.

Take “QVQLVETGGGLDQAGGSLRLSCAASGRTFLLYAMGWYRQAPGKERELVARITGRGGRTYYADSVKGRFTISRDNAKNTVYLQMNSLKPEDTAVYYCNAKGYQGQWERYDYWGQGTEVTVSS”: the “polyreactivity (PSR sort gate)” value is given as “high polyreactivity”. As for “QVQLVETGGGLDQAGVSLRLSCAASGSIFGYNDMGWYRQAPGKERELVAAIDCSDDITYYADSVKGRFTISRDNAKNTVYLQMYSLKPEETAVYYCAAVYYYYQYWAHTYYAGMEYWGQGTQVTVSS”, the entry is “high polyreactivity”; as for “QVQLVETGGGLVKAGGSLRLSCAASGITFSVYTMGWDRQAPGKERELVASITRSVGSTYYADSVKGRFTISRDNAKNTVYLQMNSLKPEDTAVYYCAARRTVVTGRYYWGQGTQVTVSS”, “high polyreactivity”. For “QVQLVETGGGLVKAGGSLRLSSAASGSIFVYYVMGWYRQAPGKERELVAAINSDGDGTYYADSVKGRFTISRDNAKNTVYLQMNSLKPEDTAVYYCAASAFTGVDTYGYGGQGTQVTVSS”, the “polyreactivity (PSR sort gate)” value is listed as “low polyreactivity”.

Consider “QVQLVETGGGLVPAGGSLRLSCAASGSTFQRYAMGWYRQAPGKERELVAAITWSGGSTKYADSVKGRFTISRDNAKNTVYLQMNSMKPEDTAVYYCARTYGSSRWGQGTQVTVSS”, for which the “polyreactivity (PSR sort gate)” value is reported as “low polyreactivity”. In the case of “QVQLVETGGGLVQAGGILRLSCAASGRIFGYNTMGWYRQAPGKERELVARISYDVDSTYYADSVKGRFTISRDNAKNTVYLQMNSLKPEDTAVYYCNARRSNLGSYIEYFGFDYWGQGTQVTVSS”, the “polyreactivity (PSR sort gate)” value is listed as “low polyreactivity”. As for “QVQLVETGGGLVQAGGSHRLSCAASGYIFFGNAMGWYRQAPGKERELVASIRWRGTSTYYADSVKGRFTISRDNAKNTGYLHMNSLKPEDTAVYYCAADVVRSNFYGTFLYDYDYWGQGTQVTVSS”, the “polyreactivity (PSR sort gate)” value was “low polyreactivity”. In the case of “QVQLVETGGGLVQAGGSLRISCAASGLILDGYALGWYRQAPGKERELVAAITRSGGRTYYADSVKWRFTISRDNAKNTVYLQMNRLKPEDTAVYDCAALGWSGRYRYDYWGQGTLVTVSS”, the “polyreactivity (PSR sort gate)” value was “high polyreactivity”. Regarding “QVQLVETGGGLVQAGGSLRISCAASGLTFYLYAMGWYRQSPGKERELVAAISSTGITNYADSVKGRFTISRDNAKNTVYLQMNSLNPEDTAVYYCNADYHPFFFEFNDWGQGTQVTVSS”, the “polyreactivity (PSR sort gate)” value is on record as “high polyreactivity”. As for “QVQLVETGGGLVQAGGSLRLICAASGSTFWRNAMGWYRQAPGKERELVATISKSGGRTYYADSVKGRFTISRDNAKNTVYLQMNRLKPEDTAVYYCAADQYWYKPYVGELYDYDYWGQGTQVTVSS”, the entry is “low polyreactivity”. For the sequence “QVQLVETGGGLVQAGGSLRLRCAASGSIFGGYAMGWYRQAPGKERELVAAISSGGSTYYADSVKGRFTISRDNAKNTVYLQMNSLKPEDTAVYYCATSTYAYRRNSYYYTRPRFGYWGQGTQVTVSS”, the “polyreactivity (PSR sort gate)” value was “high polyreactivity”.

Consider “QVQLVETGGGLVQAGGSLRLSCAASGFIFGYYAMGWYRQAPGKERELVADITSGGSTYYADSVKGRFIISRDNAKNTVYLQMNSLKPEDTAVYYCNKAWELVSQSLYYTEYNYWGQGTQVTVSS”, for which the “polyreactivity (PSR sort gate)” value is “low polyreactivity”. Then “QVQLVETGGGLVQAGGSLRLSCAASGFIFHPNTMGWYSPAPGKERELVAGISYSGGITYTDSVKGRFTISRDNAKNTVYLQMNSLKPEDTAVYYCSAGDKYHYYWGQGTQVTVSS”, with “low polyreactivity”. As for “QVQLVETGGGLVQAGGSLRLSCAASGFILSLYAMGWYRQAPGKERELVAAISRSGASTSYADSVKGRFTISRDNAKNSVYLQMNSLKPEDTAVYYCNVRRWPYSPGYDYWGQGTQVTVSS”, the “polyreactivity (PSR sort gate)” value is listed as “high polyreactivity”.

For the origin of these results see the nanobody polyreactivity screen of Harvey et al. (2022).
